Source: publication PMC10377175

How the values were obtained:
[1] = target: T1, ENOX2 (tNOX) (Homo sapiens) (UniProt Q16206); assay: electrochemical (E-DNA, square wave voltammetry); settings: apparent Kd; 0.1-200 nM ENOX2; PBS with 1 mM MgCl2; internal methylene blue on thymine T21 (printed after ...CATCTTT); 5' disulfide linker reduced to thiol; EMSA: 0.7% agarose, 0.5x TBE (65 mM Tris, 22.5 mM boric acid, 1.25 mM EDTA, 0.5 mM MgCl2, 0.005% Tween-20, pH 8.3); E-DNA: PBS pH 7.4 (137 mM NaCl, 10 mM …)
T1 sequence: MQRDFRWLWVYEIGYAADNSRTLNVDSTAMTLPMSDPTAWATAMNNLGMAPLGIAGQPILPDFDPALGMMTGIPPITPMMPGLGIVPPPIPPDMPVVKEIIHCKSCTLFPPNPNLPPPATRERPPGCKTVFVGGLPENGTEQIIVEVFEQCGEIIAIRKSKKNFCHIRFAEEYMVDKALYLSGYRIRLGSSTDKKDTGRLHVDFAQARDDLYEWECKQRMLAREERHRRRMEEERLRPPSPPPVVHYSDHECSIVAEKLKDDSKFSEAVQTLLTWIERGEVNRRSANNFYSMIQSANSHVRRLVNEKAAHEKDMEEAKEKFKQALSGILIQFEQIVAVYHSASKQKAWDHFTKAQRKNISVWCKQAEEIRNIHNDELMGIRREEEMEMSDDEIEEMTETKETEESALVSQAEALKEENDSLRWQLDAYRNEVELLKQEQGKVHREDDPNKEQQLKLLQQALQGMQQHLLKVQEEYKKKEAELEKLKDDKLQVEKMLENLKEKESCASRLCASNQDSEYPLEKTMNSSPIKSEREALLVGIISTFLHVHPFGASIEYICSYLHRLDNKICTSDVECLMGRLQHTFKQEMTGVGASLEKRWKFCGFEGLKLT

[2] = target: T1, ENOX2 (tNOX) (Homo sapiens); assay: EMSA; settings: apparent Kd; 1 nM aptamer, 0-100 nM ENOX2; 0.5 mM MgCl2; EMSA: 0.7% agarose, 0.5x TBE (65 mM Tris, 22.5 mM boric acid, 1.25 mM EDTA, 0.5 mM MgCl2, 0.005% Tween-20, pH 8.3); E-DNA: PBS pH 7.4 (137 mM NaCl, 10 mM …)

TAAAGATCCCTGTTCATCTTTTCTCGAGTGTTCTTTAGAACAATGAATCTTT [ENOX2 E-DNA biosensor aptamer]
Kd [1]: 6 nM

TTTTTTAGATCCCTGTTCATCTGTCTCGAGTGTTCTTTAATGATCTTTTT [ENOX2-binding aptamer, 5' fluorescein]
Kd [2]: 0.4 nM
